Results from publication PMC6451097, “YB-1, an abundant core mRNA-binding protein, has the capacity to form an RNA nucleoprotein filament: a structural analysis”.

Key:
YB-1 CSD = YB-1 CSD (Homo sapiens, UniProt P67809 52-129); test: NMR HSQC; 1:1; EMSA: 20 mM Hepes pH 7.5, 40 mM KCl, room temp, 5 min (SSB: 20 mM Tris-HCl pH 7.6, 300 mM KCl, 37 C, 15 min); NMR: 100 uM protein, 1:1 oligo, 298 K (RNA 298 and 303 K), NMR buffer not in material; conditions: protein: recombinant
YB-1C = YB-1C (Homo sapiens, UniProt P67809 1-180); test: NMR HSQC; 1:1; monomer; EMSA: 20 mM Hepes pH 7.5, 40 mM KCl, room temp, 5 min (SSB: 20 mM Tris-HCl pH 7.6, 300 mM KCl, 37 C, 15 min); NMR: 100 uM protein, 1:1 oligo, 298 K (RNA 298 and 303 K), NMR buffer not in material; conditions: protein: recombinant; tags: His-tag (pET22b); untagged version also used
Chain of YB-1C (P67809 1-180): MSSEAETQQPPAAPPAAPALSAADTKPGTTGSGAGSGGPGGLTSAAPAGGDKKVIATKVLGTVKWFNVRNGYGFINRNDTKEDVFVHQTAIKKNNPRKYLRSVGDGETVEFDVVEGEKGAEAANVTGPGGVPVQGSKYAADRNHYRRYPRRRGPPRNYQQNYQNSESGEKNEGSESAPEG

Chain of YB-1 CSD (P67809 52-129): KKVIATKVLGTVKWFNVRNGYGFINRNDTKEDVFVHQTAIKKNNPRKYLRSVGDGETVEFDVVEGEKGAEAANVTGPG

CCCCCCCCCC (ssDNA) [dC10]: binds (YB-1 CSD); binds (YB-1C).
